Source: patent US20160304610A1 (JOUNCE THERAPEUTICS, published 2016)

Molecular target: T1, mouse ICOS, full length, on cells (mouse, UniProt Q9WVS0 21-200)
T1 construct: also called CHO-mICOS; mouse ICOS+ CHO cells
T1 sequence: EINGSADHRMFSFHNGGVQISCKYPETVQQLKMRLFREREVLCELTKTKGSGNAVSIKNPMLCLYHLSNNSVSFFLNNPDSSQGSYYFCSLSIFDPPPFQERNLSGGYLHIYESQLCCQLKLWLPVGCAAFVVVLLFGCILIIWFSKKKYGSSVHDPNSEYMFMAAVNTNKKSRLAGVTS
Test: receptor availability assay, flow cytometry on mouse blood T cells after 2.5 mg/kg i.p.
Protocol: ICOS target engagement may also be assessed as measured by receptor availability assay, for example, as follows. Naive mice were i.p. injected with either the isotype control mIgG2a at 2.5 mg/kg or […] with a mouse IgG2a at 2.5 mg/kg. At various time-points post-injection, blood was collected in EDTA coated microtubes via submandibular draw.
Whole blood was Fc blocked using mouse TruStain (BioLegend) for 5 minutes on ice. Following incubation, 100 μl of 2× concentrated extracellular staining antibody mixture was added to each sample for 30 minutes at 4° C. Samples were spun down and fixed and permeabilized in Foxp3 staining buffer (eBioSciences) for 30 minutes at 4° C. Samples were then spun down and resuspended in intracellular antibody stain for 30 minutes at 4° C. Samples were spun down and resuspended in 0.1% PFA. Samples were analyzed on a BD LSRII Fortessa. Tregs were identified as live CD45+ CD3+ CD4+ FoxP3+. Teff cells were identified as live CD45+ CD3+ CD4+ FoxP3−. CD8+ cells were identified as live CD45+ CD3+ CD8+. Fluorescently labeled 37A10S713-mG2a (DyLight 650 conjugated) was used as the staining reagent for ICOS. Receptor availability at each time point was determined using the following formula: […]

B1: 37A10S713-mG2a (antibody, V domains shown)
VH: EVQLVESGGGLVQPGGSLRLSCAASGFTFSDYWMDWVRQAPGKGLVWVSNIDEDGSITEYSPFVKGRFTISRDNAKNTLYLQMNSLRAEDTAVYYCTRWGRFGFDSWGQGTLVTVSS
VL: DIVMTQSPDSLAVSLGERATINCKSSQSLLSGSFNYLTWYQQKPGQPPKLLIFYASTRHTGVPDRFSGSGSGTDFTLTISSLQAEDVAVYYCHHHYNAPPTFGPGTKVDIK
notes: 37A10S713 VH and VL with a mouse IgG2a; also called 37A10S713 with a mouse IgG2a; 37A10S713-mIgG2a
binding result: binds
